Measured values: PMC12102758

Molecular target: SkSGL from Sanguibacter keddieii fused with a His6-tag at the C-terminus (Group 2 / GH193 β-1,2-glucanase) (Sanguibacter keddieii)
Assay: SEC; Superdex 200 (HiLoad 16/60), 20 mM Tris-HCl (pH 7.5) in place of 50 mM Tris-HCl (pH 8.0); size by protein markers

Substance: SkSGL from Sanguibacter keddieii fused with a His6-tag at the C-terminus (Group 2 / GH193 β-1,2-glucanase) (enzyme)
- stoichiometry N: 2
